Experimental data as given in paper PMC10284417.

Target: EtpA^1-606 (Enterotoxigenic Escherichia coli (ETEC))
Experiment: dynamic light scattering; Zetasizer, 4°C, 1 mg/mL protein in 20 mM Tris pH 7.5, 150 mM NaCl

Substance: EtpA^1-606 (domain or fragment)
- stoichiometry N: 2
